The values that follow come from US20040001839A1, “Multimers - isolated molecules comprising epitopes containing sulfated moieties, antibodies to such epitopes, and uses thereof” (priority 2000, published 2004).

Data set [1] relates to KG-1 cells. The data set can be described thus: Radioreceptor binding assay with KG-1 cells. The arrangement: species or system human. Particulars: 2 ng/tube 125I-Y1-IgG tracer. How it is done: The assay system involved the use of radioactive ligands that were prepared by iodination with ^125I using chloramine T on the Y1-IgG construct or the Bolton-Hunter (CONY1) reagent. The assay tubes contained 5×10^6 KG-1 cells per 0.2 ml and a labeled tracer with varying amounts of unlabeled competitor, in PBS+0.1% BSA, pH 7.4. After one hour incubation with agitation at 4° C., the cells were thoroughly washed with cold buffer and taken for radioactivity counting.
For the radio receptor binding assay (RRA), 2 ng/tube of ^125I-Y1-IgG was used, and competition was performed with each of the three molecules. […] A rough estimate of the affinity of the Y1-IgG in this experiment is 2×10^−8 M. The corresponding affinity of the dimer is, therefore, 4×10^−8 M.
In a second RRA using labeled CONY1, a 100 ng/tube of ^125I-Y1-IgG was used, and competition was performed with each of the three molecules. […] A rough estimate of the affinity of CONY 1 in this experiment is 10^−6M. The corresponding affinity of the dimer is, therefore, 5×10^−8 M.

Another data set relates to MOLT-4 cells. Nature of the data set: T-ALL (MOLT4) model in SCID mice. The class given is in vivo. The procedure:
The in vivo mouse model for T-ALL uses SCID mice (Jackson Laboratories) injected with MOLT4 cells derived from a T cell leukemia patient.
In one experiment, SCID mice were pretreated with 100 mg/kg Cytoxan (CTX, Cyclophosphamid for injection, Mead Johnson). Eleven days after CTX injection, MOLT-4 cells were injected intravenously into the tail vein. Control mice were injected with PBS alone. One week post-MOLT-4 injection mice were injected with CONY1-Doxorubicin, which is a conjugate between scFv CON Y1 polypeptide, having KAK amino acid residues at its carboxy end and doxorubicin via a short organic linker; CONY1, which is a scFv antibody fragment derived from Y1 scFv in which the DNA sequences encoding the myc tag of Y1 were deleted and replaced with a DNA sequence encoding the amino acids lysine, alanine, lysine (KAK); or free Doxorubicin. The mice were injected three times per week for three weeks. […] (Table M).
Mice started to die 32 days post cell inoculation, and the surviving mice were sacrificed at this time. Bone marrow cells were analyzed by flow cytometry using anti-human CD44-FITC and Y1-Biotin/SAV-PE. Blood samples from several animals were monitored for platelet and white blood cell count. Livers were weighted and examined for tumor appearance. Other organs were also examined for tumor appearance.
In a second experiment, SCID mice were i.v. injected with 2×10^7 MOLT-4 cells/mouse, 5 days post treatment with cyclophosphamide. Anti-cancer agents or PBS (negative control animals) were injected i.v. three times/week from day 5 post MOLT-4 cells injection and onward. On day 35, blood was drawn from the animals, the animals were sacrificed, and their livers were excised and weighed. In the untreated, PBS-treated MOLT-4 cell-bearing animals, the liver presented with a very massive tumor growth, and its size was increased 2-3-fold relative to PBS control uninfected animals. In this experiment, there were five treatment groups:
In parallel, portions of liver tissue were taken for histology and cell harvesting for FACS analysis. The survival rate of another group of treated animals was recorded relative to that of control untreated mice.
In a third experiment, using the identical SCID/MOLT-4 protocol, there were 6 groups: […]

The test system of data set [2] is KG-1 cells. The data set can be described thus: AML KG-1 model in NOD/SCID mice. The class given is in vivo. The procedure:
The in vivo mouse model for human AML uses SCID/NOD mice (Jackson Laboratories) inoculated with KG-1 cells derived from a human AML cell line.
In a first experiment, NOD/SCID mice were pretreated with 100 mg/kg CYTOXAN®. Four days post CYTOXAN® injection, KG-1 cells were injected intravenously into the tail vein of six groups of mice. (Table N, Groups 2 and 5-9). One group of mice (Table N, Group 1) was injected with PBS alone (control). [273.][273.]
Beginning 19 days post KG-1 injection mice were treated with: CONY1, Doxorubicin, CONY1-Doxorubicin conjugate, or Mylotarg®. (Mylotarg® is a monoclonal antibody (anti CD33) conjugated chemically to calcheamicin recently approved by the FDA for treatment of AML patients age 60 and over in a first relapse.) Mice were treated once or three times per week for three weeks. […]
Mice were sacrificed from 60 to 65 days post cell injection. Bone marrow and blood samples were analyzed by flow cytometry using mouse anti human CD34-FITC (IQP 144F) (or anti CD44-FITC (MCA89F, Serotec)) and Y1-Biotin/SAV-PE. […]
An additional experiment was performed in which SCID-NOD mice were i.v. injected with 3×10^4 MOLT-4 cells/mouse 5 days post treatment with cyclophosphamide. […] Bone marrow was extracted and analyzed by FACS analysis using a commercially available antiCD44 antibody for the detection of MOLT-4 cells in the mice bone marrow cell population.

Data set [3] can be described thus: Pharmacokinetics of 125I-CONY1 after intravenous injection in mice. It is filed as in vivo, Balb-C mice. Particulars: 15 μg per mouse i.v.; plasma TCA-precipitable radioactivity, two-compartment model. How it is done: Two to four mice were used per time point. […] Organ/tissue total and specific radioactivity values were calculated.
Data set [4] addresses T1, GPIb (glycocalicin) derived from platelets (Homo sapiens, UniProt P07359).
T1 construct: glycocalicin (soluble, extracellular fragment of GPIbα); from tissue; host or cells: human platelets
The data set can be described thus: ELISA of monomer and dimer to GPIb (glycocalicin). It is filed as binding. How it is done: An ELISA assay was performed to ascertain the differences in binding between the monomer (the Y1 scFv-also known as Y1-kak) and the dimer Y1-cys-kak (the cysteine dimer) for antigen GPIb (glycocalicin) derived from platelets. A polyclonal anti single chain antibody and/or a novel polyclonal anti-VL (derived from rabbits) and anti-rabbit HRP, were used to detect the binding to GPIb. […] For instance, to reach 0.8 OD units 12.8 μg/ml of monomer was used compared to only 0.1 μg/ml of dimer.
100 ml of purified glycocalicin was incubated in a 96 flat well maxisorp plates, overnight at 4 degrees celsius. The plate was washed with PBST (PBS+0.05% tween) 3 times, then […] of PBST-milk (PBST+2% Non fat milk), for 1 hr at room temperature. The plate was washed with PBST, and the monomer or dimer (100 ml) was added in PBST-milk at different concentrations for 1 hr at room temp. Then the plate was washed and anti-VL polyclonal (derived from immunized rabbits with VL derived from Y1) (1:100 diluted in PBST-milk) was added for an hour. The plate was washed and anti-rabbit HRP was added for an additional hour. The plate was washed 5 times and 100 μl TMB substrate was added for approximately 15 minutes then 100 μl of 0.5 H2SO4 was added to stop the reaction. The optical density of the plate was measured at 450 nm in an ELISA reader.
For orientation: In an ELISA, binding on a coated surface is turned into a signal by an enzyme label.

B1: S-S Y1 dimer: disulfide bridge dimer of Y1 scFv compared with CONY1 and Y1-IgG in Example 12 (protein)
scFv 1: MEVQLVESGGGVVRPGGSLRLSCAASGFTFDDYGMSWVRQAPGKGLEWVSGINWNGGSTGYADSVKGRFTISRDNAKNSLYLQMNSLRAEDTAVYYCARMRAPVIWGQGTLVTVSRGGGGSGGGGSGGGGSSELTQDPAVSVALGQTVRITCQGDSLRSYYASWYQQKPGQAPVLVIYGKNNRPSGIPDRFSGSSSGNTASLTITGAQAEDEADYYCNSRDSSGNHVVFGGGTKLTVLGGGGCKAK
scFv 2: B1 scFv 1
For the molecule B1, the “affinity relative to the full Y1 antibody” value in the data set on KG-1 cells [1] is given as “twofold lower”.

B2: CONY1: scFv derived from Y1 scFv, myc tag replaced by lysine, alanine, lysine (KAK); SEQ ID NO:204 (protein, listed as Homo sapiens)
scFv: MKYLLPTAAAGLLLLAAQPAMAEVQLVESGGGVVRPGGSLRLSCAASGFTFDDYGMSWVRQAPGKGLEWVSGINWNGGSTGYADSVKGRFTISRDNAKNSLYLQMNSLRAEDTAVYYCARMRAPVIWGQGTLVTVSRGGGGSGGGGSGGGGSSELTQDPAVSVALGQTVRITCQGDSLRSYYASWYQQKPGQAPVLVIYGKNNRPSGIPDRFSGSSSGNTASLTITGAQAEDEADYYCNSRDSSGNHVVFGGGTKLTVLGAAAKAK
Consider B2, for which, in the data set with MOLT-4 cells (first experiment, 3 times per week for three weeks, sacrificed 32 days post cell inoculation), the “liver weight versus mice treated with free Doxorubicin or left untreated” value is recorded as “weighted significantly less”. Also, the “tumor growth in the liver (liver weights, day 35)” value in the data set on MOLT-4 cells (second experiment, 75 μg/mouse i.v. three times/week from day 5) is “markedly inhibited tumor growth in the liver”. Also, the “tumor growth (based on liver weights)” value with MOLT-4 cells (third experiment, 75 μg/mouse) is “inhibited tumor growth”. The survival result in the data set with MOLT-4 cells (three groups with continued treatment) was “prolonged”. Moreover, the “percentage of KG-1 cells in bone marrow” value with KG-1 cells [2] (KG-1 cells incubated in vitro with scFv (0.25 mg/10^8 cells) before injection (groups 3 and 4)) was “significantly lower percentage of KG-1 cells”. Also, the “development of the malignancy (cancer cells in bone marrow, day 60)” value with KG-1 cells [2] (additional experiment, 75 μg/mouse i.v. three times/week from day 14) is on record as “no effect”. Also, the “half-life of blood clearance, second compartment” value in data set [3] is 3.17 h. Moreover, in data set [4], the “concentration used to reach 0.8 OD units” value was 12.8 µg/mL.
